# Data from patent publication US20130287781A1 (GlaxoSmithKline, published 2013).
# T1: native human Nogo-A of IMR32 neuroblastoma cells (intracellular) (human, UniProt Q9NQC3 1-1192)
# T1 construct: whole, on cells; Detected inside permeabilised, fixed cells (ER-resident), not on the cell surface; also called intracellular Nogo-A; native Nogo-A
# T1 sequence (looked up): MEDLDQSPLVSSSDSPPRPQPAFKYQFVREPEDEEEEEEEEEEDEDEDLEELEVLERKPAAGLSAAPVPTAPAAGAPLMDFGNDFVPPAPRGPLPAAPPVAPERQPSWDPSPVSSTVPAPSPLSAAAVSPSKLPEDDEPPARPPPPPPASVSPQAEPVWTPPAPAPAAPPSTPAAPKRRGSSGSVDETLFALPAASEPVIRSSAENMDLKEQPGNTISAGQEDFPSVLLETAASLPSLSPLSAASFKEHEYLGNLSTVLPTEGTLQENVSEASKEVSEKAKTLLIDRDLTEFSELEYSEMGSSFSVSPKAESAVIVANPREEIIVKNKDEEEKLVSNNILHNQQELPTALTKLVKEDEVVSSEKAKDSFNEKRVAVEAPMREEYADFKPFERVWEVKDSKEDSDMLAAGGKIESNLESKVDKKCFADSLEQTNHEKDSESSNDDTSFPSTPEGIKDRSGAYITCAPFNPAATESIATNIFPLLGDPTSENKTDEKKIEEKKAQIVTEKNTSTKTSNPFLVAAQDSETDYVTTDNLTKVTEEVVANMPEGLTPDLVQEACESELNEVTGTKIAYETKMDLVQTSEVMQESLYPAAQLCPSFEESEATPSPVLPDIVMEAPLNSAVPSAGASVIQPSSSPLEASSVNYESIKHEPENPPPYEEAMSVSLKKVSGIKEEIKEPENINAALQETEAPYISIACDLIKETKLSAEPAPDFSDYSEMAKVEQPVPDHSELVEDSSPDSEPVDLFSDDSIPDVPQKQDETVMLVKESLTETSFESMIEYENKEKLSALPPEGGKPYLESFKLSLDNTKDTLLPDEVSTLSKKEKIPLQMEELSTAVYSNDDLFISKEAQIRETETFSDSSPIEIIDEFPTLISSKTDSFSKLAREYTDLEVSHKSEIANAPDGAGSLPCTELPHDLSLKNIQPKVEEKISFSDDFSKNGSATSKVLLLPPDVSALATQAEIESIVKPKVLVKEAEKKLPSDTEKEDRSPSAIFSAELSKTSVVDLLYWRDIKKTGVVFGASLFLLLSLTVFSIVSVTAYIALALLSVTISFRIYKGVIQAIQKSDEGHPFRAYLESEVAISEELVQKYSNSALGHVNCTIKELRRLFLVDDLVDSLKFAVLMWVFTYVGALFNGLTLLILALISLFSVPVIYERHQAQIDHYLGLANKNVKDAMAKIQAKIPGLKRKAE
# T2: peptide 7 (biotin-SGSG-VLPDIVMEAPLNSAVP) (human, N-terminal biotin)
# T2 peptide: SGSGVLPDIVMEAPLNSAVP
# T3: peptide 6 (biotin-SGSG-TPSPVLPDIVMEAPLN) (human, N-terminal biotin)
# T3 peptide: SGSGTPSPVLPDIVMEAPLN
# Legend:
# GST-human NOGO-A56 [1] = biological target: T4, GST-human NOGO-A56 (human); test: SPR (Biacore), GST-human NOGO-A56 amine-coupled to CM5, antibody flowed over, 37 C
# T4 construct: Expressed in E. coli BL21 from pGEX-6P1 and purified on glutathione-sepharose; the GST tag is part of the protein in the assays; also called GST-Nogo-A 5+6; GST Nogo-A 5 + 6
# T4 sequence (chain, as listed by the source limits assumed): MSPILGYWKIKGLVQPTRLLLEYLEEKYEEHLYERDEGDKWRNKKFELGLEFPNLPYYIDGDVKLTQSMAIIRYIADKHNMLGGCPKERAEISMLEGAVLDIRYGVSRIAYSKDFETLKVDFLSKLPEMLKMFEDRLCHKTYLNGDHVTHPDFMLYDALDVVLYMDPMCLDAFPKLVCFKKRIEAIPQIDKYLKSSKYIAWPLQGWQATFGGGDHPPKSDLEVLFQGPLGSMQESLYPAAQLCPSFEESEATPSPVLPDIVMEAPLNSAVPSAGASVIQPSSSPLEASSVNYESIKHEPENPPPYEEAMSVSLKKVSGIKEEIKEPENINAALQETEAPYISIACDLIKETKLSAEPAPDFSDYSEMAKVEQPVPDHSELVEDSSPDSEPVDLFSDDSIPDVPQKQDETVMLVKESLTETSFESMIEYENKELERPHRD
# Experimental: (§1) GST-human NOGO-A56 was immobilised to a CM5 chip by primary amine coupling using the Biacore Wizard program designed for targeted immobilisation levels. The CM5 sensor surface was activated by passing a solution of 50 mM N-hydroxy-succinimide (NHS) and 200 mM N-ethyl-N′-dimethylaminopropyl carbonide (EDC). Then GST-human NOGO-A56 in sodium acetate buffer, pH5.0 or pH 4.5, was passed over the chip and immobilised. After immobilisation was complete any still activated esters were blocked by an injection of 1M ethanolamine hydrochloride, pH8.5.
# (§2) The anti-NOGO mAbs were diluted down in HBS-EP (10 mM HEPES, pH 7.4, 150 mM NaCl, 3 mM EDTA, and 0.005% P-20 surfactant) for the BIAcore 3000 or HBS-EP+ (10 mM HEPES, pH 7.4, 150 mM NaCl, 3 mM EDTA, and 0.05% P-20 surfactant) in the case of the T100 and binding studies were carried out at range of defined antibody concentrations. All runs were referenced against a blanked sensor surface (one that had been activated and blocked as described earlier but had no addition of ligand). Analysis of binding was carried out using the BIAevaluation kinetic analysis software version 4.1 for the BIAcore 3000 and T100 kinetic analysis software version 1.0. […] Unless otherwise stated, the BIAcore experiments were performed at 25° C.
# GST-human NOGO-A56 [2] = biological target: T4, GST-human NOGO-A56; test: direct ELISA, GST-human NOGO-A56 coated at 1.0 mcg/ml, purified antibody, OD490
# Experimental: (§3) Wells were rinsed once with TBS+0.05% Tween (TBST) then incubated with 2% BSA in TBST to block non-specific binding sites at room temperature for 1 hour. Antibodies were diluted in TBST+2% BSA to 10 μg/ml and ½ dilutions made from this. Antibodies were added to wells in duplicate and incubated at room temperature for 1 hour. […] The wells were washed three times with TBST and then incubated with 100 μl OPD peroxidase substrate (Sigma) per well for 10 minutes. The colour reaction was stopped by the addition of 25 μl concentrated H₂SO₄. Optical density at 490 nm was measured using a plate reader. Background values read from wells with no antibody were subtracted.
# GST-human NOGO-A56 [3] = biological target: T4, GST-human NOGO-A56; test: as above; remark: listed apart in the source
# Experimental: as §3
# GST-human NOGO-A56 [4] = biological target: T4, GST-human NOGO-A56; test: SPR (Biacore T100), antigen amine-coupled to CM5, antibody 0.125-8 nM; mean of six runs in duplicate (SD in brackets)
# Text: In the first approach, the recombinant Nogo-A was coupled to the surface of the chip and anti-Nogo-A antibodies passed over this surface. In the second approach, Protein A was used to capture the antibody onto the surface of the chip over which the recombinant GST-human Nogo-A56 was passed.
# The antigen was bound to the CM5 chip by primary amine coupling. […] The values show the mean and standard deviation (in brackets) of six independent runs carried out in duplicate. Each completed data set was analysed independently prior to the calculation of mean and standard deviation.
# GST-human NOGO-A56 [5] = biological target: T4, GST-human NOGO-A56; test: SPR (Biacore), GST-human NOGO-A56 amine-coupled to CM5, antibody flowed over, 25 C
# Experimental: as §1, §2
# GST-human NOGO-A56 [6] = biological target: T4, GST-human NOGO-A56; test: SPR (Biacore T100), reverse format: antibody captured by Protein A, GST Nogo-A 5+6 0.125-8 nM flowed over; mean (SD in brackets)
# Text: Protein A was immobilised to approximately 4000RUs by primary amine and used to capture 200-300RUs of the sample antibodies. […] The values show the mean and standard deviation (in brackets) of three independent runs in duplicate. Each data set was independently analysed prior to the calculation of the mean and standard deviation.
# [7] = biological target: T1, native human Nogo-A of IMR32 …; test: flow cytometry on permeabilised, fixed IMR32 cells (intracellular Nogo-A), PE anti-human IgG, MFI
# Experimental: In the second assay, the ability of the humanised antibodies to bind native Nogo-A was assessed using a human neuroblastoma cell line—IMR32. This cell line is characterised by high intracellular/low cell surface levels of Nogo-A protein. In an attempt to increase the binding signal, the assay was set-up to detect intracellular Nogo-A (ER-resident). IMR32 cells were permeabilised and fixed prior to staining with the anti-Nogo-A humanised antibodies. Binding of the antibodies to Nogo-A was detected using an anti-human IgG-PE labelled secondary (Sigma, #P8047).
# [8] = biological target: T5, Marmoset NOGO (A56) plus GST tag (marmoset); test: direct ELISA on GST-NOGO-A56 from marmoset, Abs490
# T5 construct: also called GST-NOGO-A56 from marmoset
# T5 sequence (chain, as listed by the source limits assumed): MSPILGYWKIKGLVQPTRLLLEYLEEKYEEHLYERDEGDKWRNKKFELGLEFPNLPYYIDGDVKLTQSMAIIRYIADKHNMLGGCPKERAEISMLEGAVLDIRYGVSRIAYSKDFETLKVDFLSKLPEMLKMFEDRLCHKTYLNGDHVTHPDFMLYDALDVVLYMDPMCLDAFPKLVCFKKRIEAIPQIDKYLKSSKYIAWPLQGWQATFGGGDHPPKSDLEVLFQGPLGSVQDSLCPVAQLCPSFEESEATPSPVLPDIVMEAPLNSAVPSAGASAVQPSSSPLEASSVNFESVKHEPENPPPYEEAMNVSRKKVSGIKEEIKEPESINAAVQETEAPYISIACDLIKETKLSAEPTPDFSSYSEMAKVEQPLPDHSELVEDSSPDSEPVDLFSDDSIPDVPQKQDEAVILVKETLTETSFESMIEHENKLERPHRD
# GST-human NOGO-A56 [9] = biological target: T4, GST-human NOGO-A56; test: direct ELISA, GST-Nogo-A 5+6 coated at 1.0 mcg/ml, anti-human IgG-HRP, Abs490
# Experimental: as §3
# [10] = biological target: T6, Rat NOGO (A56) plus GST tag (rat); test: direct ELISA on GST-NOGO-A56 from rat, Abs490
# T6 construct: also called GST-NOGO-A56 from rat
# T6 sequence (chain, as listed by the source limits assumed): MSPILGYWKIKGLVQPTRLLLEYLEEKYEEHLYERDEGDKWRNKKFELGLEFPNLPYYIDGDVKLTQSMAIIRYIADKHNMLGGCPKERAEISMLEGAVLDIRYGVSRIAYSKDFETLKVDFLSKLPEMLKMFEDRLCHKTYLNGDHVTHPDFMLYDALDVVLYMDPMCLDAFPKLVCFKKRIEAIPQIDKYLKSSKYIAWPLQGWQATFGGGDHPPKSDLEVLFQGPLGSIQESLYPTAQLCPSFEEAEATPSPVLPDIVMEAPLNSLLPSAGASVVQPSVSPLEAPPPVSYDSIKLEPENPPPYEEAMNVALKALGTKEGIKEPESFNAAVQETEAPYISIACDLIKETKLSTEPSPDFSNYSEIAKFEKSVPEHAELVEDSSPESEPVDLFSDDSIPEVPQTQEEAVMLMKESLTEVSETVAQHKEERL
# [11] = biological target: T7, Squirrel monkey NOGO (A56) plus GST tag (squirrel monkey); test: direct ELISA on GST-NOGO-A56 from squirrel monkey, Abs490
# T7 construct: also called GST-NOGO-A56 from squirrel monkey
# T7 sequence (chain, as listed by the source limits assumed): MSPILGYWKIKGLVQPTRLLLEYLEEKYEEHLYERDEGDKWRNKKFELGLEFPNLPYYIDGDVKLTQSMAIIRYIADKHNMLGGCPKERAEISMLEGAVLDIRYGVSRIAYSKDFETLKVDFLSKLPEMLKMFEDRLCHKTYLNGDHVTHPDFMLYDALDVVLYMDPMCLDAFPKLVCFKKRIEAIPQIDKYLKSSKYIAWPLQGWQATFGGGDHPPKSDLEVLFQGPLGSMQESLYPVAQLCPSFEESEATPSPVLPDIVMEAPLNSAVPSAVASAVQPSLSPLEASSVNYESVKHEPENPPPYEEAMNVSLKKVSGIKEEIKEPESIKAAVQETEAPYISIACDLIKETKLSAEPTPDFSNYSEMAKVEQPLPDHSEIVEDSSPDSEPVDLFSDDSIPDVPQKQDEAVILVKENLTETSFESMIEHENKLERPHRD
# [12] = biological target: T8, Cynomolgus monkey NOGO (A56) plus GST tag (cynomolgus monkey); test: direct ELISA on GST-NOGO-A56 from cynomolgus, Abs490
# T8 construct: also called cynomolgus Nogo-A; GST-NOGO-A56 from cynomolgus
# T8 sequence (chain, as listed by the source limits assumed): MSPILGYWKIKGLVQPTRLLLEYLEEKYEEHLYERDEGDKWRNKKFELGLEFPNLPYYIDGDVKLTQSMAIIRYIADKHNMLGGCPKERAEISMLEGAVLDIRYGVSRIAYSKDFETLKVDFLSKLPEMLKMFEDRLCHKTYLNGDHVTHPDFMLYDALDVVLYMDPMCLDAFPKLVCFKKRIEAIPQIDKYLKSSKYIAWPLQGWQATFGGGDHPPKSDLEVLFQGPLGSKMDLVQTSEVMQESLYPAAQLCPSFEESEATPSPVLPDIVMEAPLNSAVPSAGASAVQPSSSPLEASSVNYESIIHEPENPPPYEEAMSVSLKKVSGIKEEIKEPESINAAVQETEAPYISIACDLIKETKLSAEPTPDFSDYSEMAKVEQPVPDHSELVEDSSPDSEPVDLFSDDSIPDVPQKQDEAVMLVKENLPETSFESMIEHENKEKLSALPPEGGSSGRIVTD
# GST-human NOGO-A56 [13] = biological target: T4, GST-human NOGO-A56; test: reverse format ELISA: antibody captured on anti-human IgG, GST-Nogo-A 5+6 detected with anti-GST-HRP; the x axis is the antibody concentration
# GST-human NOGO-A56 [14] = biological target: T4, GST-human NOGO-A56; test: direct ELISA, human NOGO-A (GST-human NOGO-A56) coated at 1 ug/ml, Abs490
# GST-human NOGO-A56 [15] = biological target: T4, GST-human NOGO-A56; test: SPR (Biacore), GST-human NOGO-A56 amine-coupled to CM5, antibody flowed over, 25 C; remark: listed apart in the source
# Experimental: as §1, §2
# GST-human NOGO-A56 [16] = biological target: T4, GST-human NOGO-A56; test: SPR (Biacore) off-rate on NOGO chip, panel of H6FL CDR H3 variants with L13FL
# GST-human NOGO-A56 [17] = biological target: T4, GST-human NOGO-A56; test: SPR (Biacore), GST-human NOGO-A56 amine-coupled to CM5, antibody flowed over, 25 C; remark: listed apart in the source
# GST-human NOGO-A56 [18] = biological target: T4, GST-human NOGO-A56; test: SPR (Biacore) off-rate ranking on GST-human NOGO-A56 chip, one experiment
# [19] = biological target: T2, peptide 7 (biotin-SGSG-VLPDIVMEAPLNSAVP); test: peptide ELISA: biotinylated 16-mer peptide on streptavidin, antibody at 5 ug/ml, kappa-chain peroxidase conjugate, Abs490
# Experimental: (§4) Streptavidin at 5 μg/ml in sterile water was coated onto Nunc immunosorp plates (100 μl per well) at 37° C. overnight. The plates were rinsed 3 times with PBS containing 0.05% Tween (PBST) then blocked with 3% BSA in PBST at 4° C. overnight. The plates were washed 3 times with PBST. Peptides were then added to the wells at a concentration of approximately 10 μg/ml (diluted in 3% BSA in PBST) and incubated at room temperature for 1 hour. The plates were washed 3 times with PBST then incubated for 1 hour with anti-NOGO antibodies diluted to 5 μg/ml in 3% BSA in PBST. […] The plates were washed 3 times with PBST and then incubated with 100 μl OPD peroxidase substrate (Sigma) per well for 10 minutes. The colour reaction was stopped by the addition of 50 μl 3 molar H₂SO₄. Absorbance at 490 nm was measured using a plate reader.
# [20] = biological target: T3, peptide 6 (biotin-SGSG-TPSPVLPDIVMEAPLN); test: as above
# Experimental: as §4
binder,measurement,setting,value
"H20L16 (antibody, human IgG1, kappa, V domains shown, IgG1 (L235A, G237A) / kappa; CAMPATH-1H signal (1-19) left out) VH: QVQLVQSGAEVKKPGASVKVSCKASGYTFTSYWMHWVRQAPGQGLEWIGNINPSNGGTNYNEKFKSKATMTRDTSTSTAYMELSSLRSEDTAVYYCELGQGYWGQGTLVTVSS VL: DIVMTQSPLSNPVTLGQPVSISCRSSKSLLYKDGKTYLNWFLQRPGQSPQLLIYLMSTRASGVPDRFSGGGSGTDFTLKISRVEAEDVGVYYCQQLVEYPLTFGQGTKLEIKR",Kd,GST-human NOGO-A56 [1],1.51 nM
same,koff,GST-human NOGO-A56 [1],0.0108 s⁻¹
same,kon,GST-human NOGO-A56 [1],7.17e+06 M⁻¹ s⁻¹
same,EC50 (read off the curve),GST-human NOGO-A56 [2],~0.1 µg/mL
same,EC50 (read off the curve),GST-human NOGO-A56 [3],~0.09 µg/mL
same,Kd,GST-human NOGO-A56 [4],1.8 nM
same,Kd,GST-human NOGO-A56 [5],1.16 nM
same,koff,GST-human NOGO-A56 [5],0.00542 s⁻¹
same,kon,GST-human NOGO-A56 [5],4.69e+06 M⁻¹ s⁻¹
same,Kd,GST-human NOGO-A56 [6],0.31 nM
same,binding result,[7],binds
same,EC50 (read off the curve),[8],~0.07 µg/mL
same,EC50 (read off the curve),GST-human NOGO-A56 [9],~0.1 µg/mL
same,EC50 (read off the curve),[10],~0.08 µg/mL
same,EC50 (read off the curve),[11],~0.05 µg/mL
same,EC50 (read off the curve),[12],~0.09 µg/mL
same,EC50 (read off the curve),GST-human NOGO-A56 [13],~0.08 µg/mL
"H26L13 (antibody, human IgG1, kappa, V domains shown, H26 FL is H6 FL with G95M (Kabat); IgG1 (L235A, G237A) / kappa; CAMPATH-1H signal (1-19) left out; also called H6(G95M)L13; H6L13 with VH CDR3 MQGY) VH: QVQLVQSGAEVKKPGASVKVSCKASGYTFTSYWMHWVRQAPGQGLEWIGNINPSNGGTNYNEKFKSRATMTRDTSTSTAYMELSSLRSEDTAVYYCELMQGYWGQGTLVTVSS VL: DIVMTQSPLSLPVTLGQPASISCRSSKSLLYKDGKTYLNWFQQRPGQSPQLLIYLMSTRASGVPDRFSGGGSGTDFTLKISRVEAEDVGVYYCQQLVEYPLTFGQGTKLEIKR",EC50 (read off the curve),GST-human NOGO-A56 [14],~0.03 µg/mL
same,Kd,GST-human NOGO-A56 [15],0.963 nM
same,koff,GST-human NOGO-A56 [15],0.00311 s⁻¹
same,kon,GST-human NOGO-A56 [15],3.23e+06 M⁻¹ s⁻¹
same,EC50 (read off the curve),GST-human NOGO-A56 [2],~0.1 µg/mL
same,koff,GST-human NOGO-A56 [16],0.00485 s⁻¹
same,Kd,GST-human NOGO-A56 [17],0.87 nM
same,koff,GST-human NOGO-A56 [17],0.00288 s⁻¹
same,kon,GST-human NOGO-A56 [17],3.45e+06 M⁻¹ s⁻¹
same,koff,GST-human NOGO-A56 [18],0.00431 s⁻¹
"2A10 (murine monoclonal antibody) (antibody, V domains shown, Mouse monoclonal; also called parental antibody 2A10; murine donor antibody 2A10) VH: QVQLQQPGTELVKPGASVKLSCKASGYTFTSYWMHWVKQRPGQGLEWIGNINPSNGGTNYNEKFKSKATLTVDKSSSTAYMQLSSLTSEDSAVYYCELGQGYWGQGTTLTVSS VL: DIVITQDELSNPVTSGESVSISCRSSKSLLYKDGKTYLNWFLQRPGQSPQLLIYLMSTRASGVSDRFSGSGSGTDFTLEISRVKAEDVGVYYCQQLVEYPLTFGAGTKLELK",binding result,[19],binds
same,binding result,[20],binds
